Assay [1] addresses T1, monoclonal antibody DC2E2.
T1 construct: Used as hybridoma supernatant or Protein G purified; biotinylated as detector in the digital ELISA
As to the kind of experiment: competition ELISA, peptide pre-incubated with DC2E2, plates coated with tau 1-242. The protocol: (§1) The plates were washed 4 times with PBS/Tween 20 (0.1% v/v), and blocked with PBS/Tween 20 for 2 h at 25° C. Peptides were separately dissolved in PBS at a final concentration of 5 mM. Serial dilutions (2,5-fold) of the peptides in PBS/Tween 20 were prepared in polypropylene plates with conical well bottom (Greiner, #651201) (concentration range 200 μM, 32 μM, 12.8 μM, 5.1 μM, 2 μM, 0.8 μM, and 0.3 μM). 60 μl of each dilution were added per well. Purified DC2E2 was diluted to a concentration of 0.6 μg/ml in PBS/Tween 20 and 60 μl of this diluted antibody was mixed with each serial dilution of peptides resulting in 120 μl mixtures with […] of antibody/60μl containing each respective test peptide at a concentration of 200 μM, 32 μM, 12.8 μM, 5.1 μM, 2 μM, 0.8 μM, and 0.3 μM. The antibody/peptide mixtures were incubated for 1 hr at 25° C. on a rotating platform set to 250 rpm. […] The plates were washed 4× times with PBS/Tween 20 and incubated for 1 hr at 25° C. on a rotating platform (set to 250 rpm) with 50 μl of Polyclonal Goat Anti-Mouse Immunoglobulins/HRP (Dako, #P0447) diluted 1:1000 in PBS/Tween 20. The plates were washed 4× times with PBS/Tween and then incubated with 50 μl/well of TMB one solution (Kem-En-Tec Diagnostics) as a peroxidase substrate. The reaction was stopped by adding 50 μl of 2 M H₂SO₄ (Merck). Absorbance was measured at 450 nm using a Powerwave HT (Bio-Tek).

Assay [2] concerns the target T2, monoclonal antibody DC2E7.
T2 construct: also called DC217 (apparent misprint)
Description: competition ELISA, peptide pre-incubated with DC2E7. The procedure:
In order to examine the effect of residues in the region of DC2E7 epitope on antibody binding, synthetic peptides of different lengths carrying different phospho-sites were analyzed in competitive ELISA. […] Each synthetized peptide contained phospho-site(s) located around the residue Thr217, except of unphosphorylated peptide tau 201-229 (used as negative control).
ELISA plates (Nunc Medisorp, Thermo Scientific, Denmark) were coated overnight at 37° C. with 50 μl/well of PHF-tau, diluted 200× in PBS. The coated plates were washed 5 times with PBS/Tween 20 (0.05% v/v), and blocked with PBS/Tween 20 for 1 h at 25° C. Each of the peptides was separately dissolved in PBS at a final concentration of 1 mM. Serial dilutions (2.5×) of peptides in PBS/Tween 20 were prepared in polypropylene microtiter plates with conical well bottom (Greiner) within the concentration range of 200 μM; 80 μM; 32 μM; 12.8 μM; 5.12 μM; 2.048 μM; 0.8192 μM; 0.32768 μM). The monoclonal antibody DC2E7 was diluted to a concentration of 0.6 μg/ml in PBS and 60 μl of this diluted antibody was added into each well to serial dilution of peptides resulting in 120 μl/well of mixture. The antibody/peptide mixtures were incubated for 1 hr at 25° C. on a rotating platform set to 230 rpm.
In general terms: In an ELISA, binding on a coated surface is turned into a signal by an enzyme label.

Assay [3] has as its target unphosphorylated tau protein (UniProt P10636-8 1-441, limits assumed). As to the kind of experiment: ELISA.
Assay [4] addresses T1, monoclonal antibody DC2E2. Description: competition ELISA, peptide 0.3-200 µM pre-incubated with DC2E2, plates coated with tau 1-242. The protocol:
as §1

Where no end group is shown, it is not given here. [ ]: non-standard residue; d: D form. pT = C[C@@H](OP(=O)(O)O)[C@H](N)C(=O)O

T1 sequence (VL, as listed by the source): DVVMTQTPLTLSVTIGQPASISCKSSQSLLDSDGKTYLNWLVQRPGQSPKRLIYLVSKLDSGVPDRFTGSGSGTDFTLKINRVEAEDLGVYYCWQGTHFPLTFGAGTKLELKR
T2 sequence (VL, as listed by the source): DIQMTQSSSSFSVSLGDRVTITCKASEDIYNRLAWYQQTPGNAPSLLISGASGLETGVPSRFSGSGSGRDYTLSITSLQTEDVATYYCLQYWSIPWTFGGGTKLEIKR
Sequence of unphosphorylated tau protein (P10636 other isoform, or with tags, fused parts or gaps limits assumed): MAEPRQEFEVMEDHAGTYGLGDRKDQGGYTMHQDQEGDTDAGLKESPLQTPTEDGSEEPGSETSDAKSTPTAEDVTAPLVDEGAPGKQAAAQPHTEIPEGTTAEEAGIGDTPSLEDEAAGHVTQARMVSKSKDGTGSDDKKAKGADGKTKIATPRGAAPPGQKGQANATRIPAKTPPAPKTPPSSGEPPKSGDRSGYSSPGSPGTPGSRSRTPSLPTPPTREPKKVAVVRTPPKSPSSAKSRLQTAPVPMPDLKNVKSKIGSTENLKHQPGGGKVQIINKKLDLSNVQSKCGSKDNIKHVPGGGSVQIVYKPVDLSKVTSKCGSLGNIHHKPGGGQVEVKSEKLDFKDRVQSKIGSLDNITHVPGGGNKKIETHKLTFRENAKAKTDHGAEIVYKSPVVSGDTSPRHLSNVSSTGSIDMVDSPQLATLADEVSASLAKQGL

For the molecule IPAKTPPAPKTPPSSGEPPKSGDRSGYSSP [synthetic peptide tau 171-200], in assay [1], the binding result is “no binding (tested: peptide up to 200 µM)”. Turning to SR[pT]PSLP[pT]PPT [synthetic phosphopeptide tau 210-220/pT212/pT217], the binding result in assay [2] is listed as “no binding (tested: peptide up to 200 µM)”. For TPPSSGEPPKSGDRSGYSSPGSPGTPGSRS [synthetic peptide tau 181-210], the binding result in assay [1] is “no binding (tested: peptide up to 200 µM)”.

B1: antibody DC149 (antibody, V domains shown)
VH: DVQLVESGGGLVQPGGSRKLSCAASGFTLSSFGMHWVRQAPEKGLEWVAYISSGSSTIYYADTVKGRFTISRDNPKNILFLQMTSLRSEDTAIYYCSRRLDYWGQGTSVTVS
VL: DIVITQDELSNPVTSGESVSISCRSSKSLLYKDGKTYLNWFLQRPGQSPQLLIYLMSTRASGVSDRFSGSGSGTDFTLEISRVKAEDVGVYYCQQFVEYPLTFGTGTKLELQR
notes: Mouse monoclonal antibody
For the molecule B1, the binding result in assay [3] is “no binding”.

On to KAKGADGKTKIATPRGAAPPGQKGQANATR [synthetic peptide tau 141-170], for which the binding result in assay [1] is recorded as “no binding (tested: peptide up to 200 µM)”.

For the molecule SR[pT]PSLP[pT]P [synthetic phosphopeptide tau 210-218/pT212/pT217], the binding result in assay [2] is listed as “no binding (tested: peptide up to 200 µM)”.

B2: antibody DC807 (antibody, V domains shown)
VH: EVKLVESGGGLVKPGGSLKLSCAASGFTFSNYAMSWVRQNPEKRLEWVASISSGGTIYSPDSVKGRFTISRDNGRNILYLQMSSLRSEDTAMYSCARVNYDYGYAMDYWGQGTSVTVS
VL: DAVMTQTPLSLPVSLGDQASISCRSSQSLENSNGNTYLNWYLQKPGQSPQLLIYRVSNRFSGVLDRFSGSGSGTDFTLKISRVEAEDLGVYFCLQVTHVPWTFGGGTKLEIKR
notes: Mouse monoclonal antibody
Turning to B2, the binding result in assay [3] is “no binding”.

With GQKGQANATRIPAKTPPAPKTPPSSGEPPK [synthetic peptide tau 161-190], the binding result in assay [4] is listed as “binds”. As for SR[pT]PSLP[pT]PP [synthetic phosphopeptide tau 210-219/pT212/pT217], the binding result in assay [2] is “no binding (tested: peptide up to 200 µM)”.
